Laboratory results reported in US11046782B2, “Methods for treatment and diagnosis of cancer by targeting glycoprotein A repetitions predominant (GARP) and for providing effective immunotherapy alone or in combination” (MUSC FOUNDATION FOR RESEARCH DEVELOPMENT, priority 2016, dated 2021).
Blank lines part the entries; values can stand above or below the molecule they belong to.

What was measured:
B16-F1 melanomas = assay: B16-F1 melanoma model, adoptive T cell therapy with anti-platelet agents; format: in vivo, C57BL/6 mice; conditions: no adoptive T cells; Cy on day 7
Text: To establish the clinical relevance of the suppressive effect of platelets on anti-tumor immunity, the impact of platelets on immunotherapy was addressed pharmacologically. B16-F1 melanomas were established in C57BL/6 mice after subcutaneous injection on day 0, followed by lymphodepletion with Cy on day 7, and infusion of ex vivo primed Pmel cells on day 8, along with anti-platelet (AP) agents: aspirin and clopidogrel. Aspirin and clopidogrel inhibit platelet activation by blocking cycloxyenase and ADP receptors, respectively.
B16-F1 tumor model and adoptive T cell therapy (ACT). […] (B16 EV, and B16 GARP-Fc; n=5-7 each group) of 6-8-week old female C57BL/6J mice were inoculated s.q. in the right flank using 2.5×10^5 cells and, when specified, treated with one intra-peritoneal injection of CY (4 mg/mouse) a day prior to adoptive T cell therapy. […] Primary tumor growth was monitored 3 times per week with vernier calipers. Peripheral adoptively transferred Pmel cells were monitored at 2, 3, 4, and 5 weeks after ACT. Ex-vivo Pmel IFN-γ production was assess stimulating Pmel cells for 3 h in presence of hgp100 and brefeldin A (BFA) at 37° C. and analyzed by flow cytometry.

[1] = system: human GARP-expressing 4T1 tumor cells; assay: 4T1-huGARP orthotopic mammary tumor model, GARP antibody therapy; format: in vivo, BALB/c mice; conditions: for primary tumor growth: antibody 0.1 mg/mouse i.p. three times per week, with or without a single dose of CY, vs isotype control
Experimental: 4T1 Tumor model and GARP antibody therapy. Female BALB/c mice, 6-8-week old were inoculated in the fourth mammary fat pad subcutaneously (s.q.) with 5×10^5 cells (4T1 EV, 4T1 GARP, or 4T1 GARP-Fc). Tumor growth was monitored three times per week with a digital vernier caliper and tumor volume was calculated using the following formula: tumor volume (mm^3)=[(width)^2×length][…]. In GARP antibody therapy experiments, beginning at 3 days post-tumor inoculation, anti-GARP antibody or polyclonal isotype-controlled antibody (0.1 mg/mouse in 0.1 mL PBS; three times per week) were administered intraperitoneally (i.p.) into mice. […] At end-point, mice were sacrificed and the primary tumor, draining LNs, spleen, lungs and liver were isolated. Tumor infiltrated lymphocytes were isolated by Collagenase D (Sigma) digestion followed by Histopaque-1083 (Sigma) mediated density separation.

mouse GARP = molecular target: T1, mouse GARP (Mus musculus, UniProt G3XA59); assay: Cross-reactivity of anti-GARP mAb clones against mouse GARP; format: binding
T1 sequence (G3XA59 18-663): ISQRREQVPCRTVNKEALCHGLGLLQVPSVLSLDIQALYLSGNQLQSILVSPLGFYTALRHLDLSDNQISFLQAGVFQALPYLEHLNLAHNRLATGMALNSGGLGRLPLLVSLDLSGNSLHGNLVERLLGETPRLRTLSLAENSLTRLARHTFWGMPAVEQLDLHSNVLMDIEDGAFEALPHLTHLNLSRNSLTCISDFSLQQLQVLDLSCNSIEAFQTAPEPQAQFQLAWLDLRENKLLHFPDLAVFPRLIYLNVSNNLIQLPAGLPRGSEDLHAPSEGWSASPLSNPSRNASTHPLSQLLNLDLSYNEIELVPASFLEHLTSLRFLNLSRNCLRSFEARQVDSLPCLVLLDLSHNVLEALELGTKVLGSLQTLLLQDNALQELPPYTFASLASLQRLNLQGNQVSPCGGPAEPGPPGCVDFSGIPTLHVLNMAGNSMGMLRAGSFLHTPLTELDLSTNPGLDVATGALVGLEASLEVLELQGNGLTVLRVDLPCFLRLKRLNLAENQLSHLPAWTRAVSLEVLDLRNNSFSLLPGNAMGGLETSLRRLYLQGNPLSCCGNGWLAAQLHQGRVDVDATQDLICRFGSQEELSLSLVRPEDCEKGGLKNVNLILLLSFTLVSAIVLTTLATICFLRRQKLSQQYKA

[2] = molecular target: T2, binding of exogenous human LTGFβ-1 (huLTGFβ-1) to surface GARP (Homo sapiens, UniProt Q14392); assay: Blocking of exogenous huLTGF-β binding to surface GARP on Pre-B-hGARP cells; format: cell-based; conditions: staining for cell surface huLTGF-β
T2 construct: expressed in transfected cells; host or cells: murine Pre-B leukemia line 70Z/3 stably transduced with human GARP (MigR1 retroviral vector)
T2 sequence (Q14392 20-662): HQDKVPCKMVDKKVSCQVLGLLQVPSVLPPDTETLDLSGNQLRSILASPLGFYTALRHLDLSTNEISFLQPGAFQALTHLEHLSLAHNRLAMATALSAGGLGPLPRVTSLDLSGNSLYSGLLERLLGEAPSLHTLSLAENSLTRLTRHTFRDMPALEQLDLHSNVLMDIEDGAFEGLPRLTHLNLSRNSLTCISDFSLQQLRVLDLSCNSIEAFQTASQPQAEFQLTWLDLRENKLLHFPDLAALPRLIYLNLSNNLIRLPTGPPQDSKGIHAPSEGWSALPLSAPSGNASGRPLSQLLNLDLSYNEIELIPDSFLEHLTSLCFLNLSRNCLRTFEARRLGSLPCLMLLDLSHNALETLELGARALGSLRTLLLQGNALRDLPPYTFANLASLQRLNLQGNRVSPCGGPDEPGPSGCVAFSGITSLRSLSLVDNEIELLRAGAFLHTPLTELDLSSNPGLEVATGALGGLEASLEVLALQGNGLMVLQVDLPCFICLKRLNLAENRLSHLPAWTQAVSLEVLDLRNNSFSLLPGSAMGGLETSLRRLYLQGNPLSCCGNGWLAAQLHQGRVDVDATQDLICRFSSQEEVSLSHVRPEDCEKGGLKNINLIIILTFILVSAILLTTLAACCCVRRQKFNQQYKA
Experimental: FIGS. 7A-7E. GARP-specific antibodies block binding of exogenous LTGF-β to GARP and have therapeutic values against a preclinical model of breast cancer. (7A) Surface staining of Pre-B cells stably expressing human GARP (Pre-B-hGARP) by various GARP antibodies. Grey histogram represents staining with isotype control antibody. (7B) Pre-B-hGARP cells were incubated without or with human LTGF-β (huLTGF-β), in the presence of various GARP antibodies or Isotype control antibody, followed by staining for cell surface huLTGF-β. (7C) BALB/c mice were injected with 4T1-huGARP mammary tumors orthotopically, followed by indicated treatment regimen. Data shown are the comparisons of primary tumor weight isolated at 35 days (left panel, combined treatment group) or 30 days (right panel, antibody treatment alone) after inoculation. (7D) Impact of anti-GARP antibody treatment alone (left panel) or in combination with CY on the number of metastatic tumor nodules in the lungs. (7E) Percentage of splenic Tregs and MDSCs in the spleen of mice treated with isotype control antibody or anti-GARP antibody (4D3). Two sample t-tests were used to compare group differences in all panels. *P<0.05. ***P<0.001.

NMuMG cells = NMuMG cells stimulated with soluble GARP-Fc (morphology, vimentin Western blot); format: cell-based, murine
Experimental: Protein extraction, immunoprecipitation, and Western blot analysis. Cells were harvested by trypsin-EDTA when necessary, washed in PBS, and lysed on ice in radio-immunoprecipitation assay (RIPA) lysis buffer in the presence of a protease inhibitor cocktail (Sigma-Aldrich). Nuclear-free protein lysate was quantified by Bradford assay (Bio-Rad), and an equal amount of lysate was analysed by SDS-PAGE and Western blot under reducing conditions using anti-mouse GARP (AF6229; R&D system), anti-mouse Vimentin (D21H3; Cell signaling), anti-mouse E-Cadherin (24E10; Cell Signaling) and anti-mouse p-Smad-2/3 (EP823Y; Abcam).
Cell proliferation and in vitro wound healing assay. NMuMG cells (4×10^5) were starved overnight in serum free DMEM (Corning cellgro). Starved cells were cultured at the indicated times with GARP-Fc in 2% FBS DMEM. […] Proliferation was determined with 3-[4,5 dimethylthiazol-2-yl]-2,5-diphenyltetrazolium bromide (MTT), which was added to the cells at the indicated times and incubated for an additional 3 h at 37° C. […] Absorbance at 570 nm was then measured using a plate reader. The cell migration was measured by the wound-healing assay: at 100% confluence, two parallel wounds were made using a 1 ml pipette tip. Migration was assessed after 24, 48 and 72 hours and quantification of wound closure was measured using the ImageJ software (NIH).

active TGF-β1 = assay: Active TGF-β ELISA of purified recombinant GARP-Fc; format: binding; conditions: GARP-Fc purified from CHO conditioned medium
Experimental: Purification of GARP-Fc. For purification of GARP-Fc protein GARP-Fc, MigR1 vector was transfected into Chinese hamster ovary (CHO) cells using Lipofectamine 2000 (Invitrogen) according to the manufacturer's instructions. Stably transfected clones were selected by blasticidin (5 μg/ml) and protein expression was quantified by SDS-PAGE and Western blot under reducing conditions using anti-mouse GARP and anti-mouse Fc antibody. Recombinant GARP-Fc was purified from cell culture supernatants by protein A affinity chromatography (GE Health).
TGF-β1, GARP, and GARP-TGF-β1 analysis. Active TGF-β1, total TGF-β1, and soluble GARP were measured in human and mouse serum using TGF-β1 and GARP ELISA kits (BioLegend, San Diego, Calif.) according to the manufacturer's protocols. To measure GARP-TGF-β1 complex by ELISA, 96-well plates were coated with TGF-β1 capture antibody according to the manufacturer's instructions (BioLegend, San Diego, Calif.). Samples were incubated for 2 h at room temperature followed by the incubation with the anti-hGARP detection antibody developed in our lab for another 2 h.

[3] = spleen, vs isotype control antibody

Molecule: O=P1(N(CCCl)CCCl)NCCCO1 (stereo not shown) [Cy, cyclophosphamide]
tumor control without T cell transfer (B16-F1 melanomas): failed to control tumors

B1: 5C5: second anti-GARP mAb (IgG2a); VH SEQ ID NO: 12, VL SEQ ID NO: 16 (antibody, listed as Homo sapiens, V domains shown)
VH: EVKLVESGGGSVKPGGSLKLSCAASGFTFSNYVMSWVRQTPEKRLEWVATISSGGSYTYYPDSVKGRLTISRDNAKNTLYLQMSSLRSEDTAMYYCARGYDNGDYVMDYWGQGTSVTVSS
VL: DIVLTQSPASLAVSLGQRATISCRASESVDTYGNSFMHWYQQIPGQPPKVLIYRASNLESGIPARFSGSGSRTDFTLTINPVEAGDVATYYCQQTNEHPPTFGGGTKLEIK
primary tumor growth [1]: modestly inhibited

cross-reactivity against mouse GARP (mouse GARP): low level of cross-reactivity | block of binding of exogenous human LTGFβ-1 to surface GARP [2]: only clone able to block
B2: 4D3: anti-GARP monoclonal antibody (IgG1); VH SEQ ID NO: 4, VL SEQ ID NO: 8 (antibody, listed as Homo sapiens, V domains shown)
VH: LDVQLQESGPGLVKPSQSLSLTCTVTGYSITSDYAWNWIRQFPGNKLEWMGYISYSGSTSYTPSLKSRISITRDTSKNHFFLQSNSVTTEDTATYYCAKSGGDYYGSSSYWYFDVWGAGTTVTVSS
VL: DIQMTQSPSSLSVSAGEKVTMSCKSSQSLLNSRSQKNYLAWYQQKPGQPPKLLIYRASTRGSGVPDRFTGSGSGTDFTLTISSVQAEDLAVYYCQNDHSYPFTFGSGTKLEIK
primary tumor growth [1]: modestly inhibited | splenic Gr1+CD11b+ myeloid-derived suppressor cells (MDSCs) [1, 3]: significant reduction | splenic Tregs [1, 3]: significant reduction

B3: GARP-Fc: fusion protein consisting of the N-terminal extracellular domain of GARP linked to an Fc domain of IgG (protein)
chain: ISQRREQVPCRTVNKEALCHGLGLLQVPSVLSLDIQALYLSGNQLQSILVSPLGFYTALRHLDLSDNQISFLQAGVFQALPYLEHLNLAHNRLATGMALNSGGLGRLPLLVSLDLSGNSLHGNLVERLLGETPRLRTLSLAENSLTRLARHTFWGMPAVEQLDLHSNVLMDIEDGAFEALPHLTHLNLSRNSLTCISDFSLQQLQVLDLSCNSIEAFQTAPEPQAQFQLAWLDLRENKLLHFPDLAVFPRLIYLNVSNNLIQLPAGLPRGSEDLHAPSEGWSASPLSNPSRNASTHPLSQLLNLDLSYNEIELVPASFLEHLTSLRFLNLSRNCLRSFEARQVDSLPCLVLLDLSHNVLEALELGTKVLGSLQTLLLQDNALQELPPYTFASLASLQRLNLQGNQVSPCGGPAEPGPPGCVDFSGIPTLHVLNMAGNSMGMLRAGSFLHTPLTELDLSTNPGLDVATGALVGLEASLEVLELQGNGLTVLRVDLPCFLRLKRLNLAENQLSHLPAWTRAVSLEVLDLRNNSFSLLPGNAMGGLETSLRRLYLQGNPLSCCGNGWLAAQLHQGRVDVDATQDLICRFGSQEELSLSLVRPEDCEKGGLKNVN
modifications: left off: a dimerising Fc or GST
notes: fusion protein consisting of the N-terminal extracellular domain of GARP linked to an Fc domain of IgG
vimentin expression (NMuMG cells; Western blot, indicated times and increasing doses): time- and dose-dependent upregulation | cell morphology change (NMuMG cells; serum-free medium, within 24 hours): spindle-shaped morphology | association between GARP-Fc and active TGF-β1 (active TGF-β1): direct association
